Assay results: paper PMC11968277, “Sulfoglycolysis sustains Eubacterium rectale in low-fiber diets” (The Journal of Biological Chemistry, 2025)

What was measured:
[1] = biological target: Bacillus megaterium SqvB (DUF4867 family member) (Bacillus megaterium); experiment: SEC-MALS; SEC-MALLS; 100 ul injected at 2.7 mg/mL; running buffer 50 mM Tris pH 7.5, 300 mM NaCl; room temperature (20 ± 2 °C)
[2] = substrate: O=[N+]([O-])c1ccc(O[C@H]2O[C@H](CS(=O)(=O)O)[C@@H](O)[C@H](O)[C@H]2O)cc1; experiment: purified protein; assay type: biochemical, Agathobacter rectalis; settings: PBS (50 mM sodium phosphate, 150 mM NaCl), pH 6.5, 30 °C

Molecule	stoichiometry N [1]	Km [2]	kcat [2]	kcat/Km [2]
Bacillus megaterium SqvB (DUF4867 family member) (natural protein)	2	–	–	–
SftG (E. rectale SftG SQase) (Agathobacter rectalis ATCC 33656) (protein, codon-optimised gene in pET29a(+), C-terminal His6 tag, expressed in E. coli NEB T7 Express) MQIKVNDNEFQLFVGEKRILEHSKERPMIYVGVGQEDVDMYRGNFKITDYVTERFPLKLTDVIQTADTVRLCFESYIIAKIKCDENLCTIDFEQKDDRINRFWFRVAADKEEKCYGCGEQMSYFNLRGRNFPIWTSEPGVGRDKTTYVTWRSDVENKAGGDYYNTNYPQPTFVSTNKYYLHVDSTAYADFDFRNDSFHELQIWEVPKQIRIECADTYLKLLERITTYFGRQPKLPDWVYNGLIIGVQGGNERSFGLLDKTLDRNIKVAGIWCQDWCGKRVTSFGKRLQWDWKYHKEMYPDLPKKIKEINAKGIKFLGYVNPYLVNDGELYKEGKEKGYFATKADGSDYLVDFGEFYCGVVDLTNPEAFEWFKDIIKEYTLGIGIDGWMADFGEYLPTDDICLYSGKSPMIEHNHWPVLWAKCNYEAVKESGKLGDVVYFMRAGGAGSQKYCTLLWAGDQSVDFTIHDGLASVICGALSAGMMGCGLTHSDIGGYTSLFDNTRTKELFLRWAEMAMFTPFMRTHEGNRPDTNFQYYDDEDTMERLARLVDVYTMLAPYTKTLVEENADSGHPVQRPLFMHYESDAKAYDIQYEYLFGRDMLIAPVYEQDKHEWDVYLPQDEWVHLWTGEEYHGGEITVSAELGYTPAFYRKNSEFADIFEEIREKYGVK	–	478 ± 30 µM	78.8 ± 3.9 s⁻¹	165000 ± 18000 M⁻¹ s⁻¹
